Measured values: US20200362047A1 (CRESCENDO BIOLOGICS, published 2020)

T1: rhesus CD137Fc recombinant protein (Sino Biologicals cat no. 90847-K02H) (rhesus; human, UniProt H9Z8K9 24-186)
T1 construct: Bought protein; also called rhesus CD137-human IgG1 Fc tagged protein; not shown: human IgG1 Fc tag
T1 sequence: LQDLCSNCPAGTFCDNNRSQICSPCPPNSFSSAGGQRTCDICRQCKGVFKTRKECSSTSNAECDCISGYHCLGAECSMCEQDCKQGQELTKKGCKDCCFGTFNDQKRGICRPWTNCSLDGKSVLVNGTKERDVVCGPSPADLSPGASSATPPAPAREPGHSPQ


Key:
[1] = target: T2, human CD137-human Fc chimeric protein (Acro Biosystems cat no. 41B-H5258) (human, UniProt Q07011 24-186); experiment: BLI (Octet RED384), CD137-Fc amine-coupled to AR2G sensors, 1:1 model
T2 construct: Bought protein; The Octet Protein G and Biacore experiments name no catalogue number; also called human CD137Fc recombinant protein; human CD137-Fc recombinant protein; not shown: human IgG1 Fc tag
Description: (§1) The kinetics of monovalent and bispecific Humabody VH were determined on a ForteBio Octet RED 384 instrument. To study the interaction with the antigens, CD137-Fc tag protein (Acro Biosystems cat no. 41B-H5258) or PSMA-his (R&D Systems cat no. 4234-ZN) was immobilised onto AR2G biosensors (ForteBio cat no. 18-5082) by amine coupling. Monovalent VH and bispecific molecules were serially diluted (typically 1:2 dilution series starting between 12-25 nM, at the highest concentration) in kinetics buffer (0.1% BSA, 0.02% Tween, 1×PBS) and binding to the immobilised proteins was studied during the association and dissociation phases. PSMA binding was measured using 180 seconds association and 600 seconds dissociation phases. CD137 binding was measured 180 seconds association and 600 seconds dissociation phases. Reference subtracted data were fitted to a 1:1 binding model using the ForteBio Octet Data Analysis software.

[2] = target: T3, human PSMA expressed on cells (human, UniProt Q04609 1-750); experiment: FMAT, CHO human PSMA cells
T3 construct: One molecule for both cell lines (CHO human PSMA, DU145 PSMA); the cell line stands under assay; also called CHO human PSMA; CHO PSMA
T3 sequence (Q04609 whole entry): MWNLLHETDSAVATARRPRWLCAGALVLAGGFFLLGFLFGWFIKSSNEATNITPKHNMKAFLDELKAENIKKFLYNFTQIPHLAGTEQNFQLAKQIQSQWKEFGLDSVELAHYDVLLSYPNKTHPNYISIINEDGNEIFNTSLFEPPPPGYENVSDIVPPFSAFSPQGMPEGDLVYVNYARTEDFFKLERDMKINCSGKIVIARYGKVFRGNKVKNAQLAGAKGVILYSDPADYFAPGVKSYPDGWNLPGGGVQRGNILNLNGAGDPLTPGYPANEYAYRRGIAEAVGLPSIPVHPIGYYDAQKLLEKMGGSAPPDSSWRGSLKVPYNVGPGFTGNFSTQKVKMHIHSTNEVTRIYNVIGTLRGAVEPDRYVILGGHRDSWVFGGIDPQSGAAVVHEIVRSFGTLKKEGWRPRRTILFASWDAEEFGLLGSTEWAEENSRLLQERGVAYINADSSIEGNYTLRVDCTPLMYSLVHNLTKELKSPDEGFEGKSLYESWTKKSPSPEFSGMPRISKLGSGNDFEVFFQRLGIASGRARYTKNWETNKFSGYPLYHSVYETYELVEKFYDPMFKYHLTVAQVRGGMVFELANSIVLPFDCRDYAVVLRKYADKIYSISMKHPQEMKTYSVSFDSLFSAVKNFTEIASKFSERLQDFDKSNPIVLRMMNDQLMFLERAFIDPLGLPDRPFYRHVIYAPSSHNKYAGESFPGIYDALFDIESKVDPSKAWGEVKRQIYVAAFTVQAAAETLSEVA
Description: (§2) Binding of His-tagged molecules to CHO human CD137, CHO parent, CHO human PSMA, DU145 PSMA and DU145 parent cells was assessed using Fluorescence Microvolume Assay Technology (FMAT). All reagents were prepared in FMAT assay buffer (pH 7.4) containing PBS, 0.1% Bovine Serum Albumin, 0.05% Sodium Azide. Serially diluted samples were transferred into 384 well black clear-bottomed assay plates (Costar cat. no. 3655) and incubated for a minimum of 2 hours at room temperature with 1.5 nM Anti-His (Millipore cat. no. 05-949), […] Goat Anti-Mouse Alexa Fluor-488 (Jackson ImmunoResearch cat. no. 115-545-071) and 2000 cells/well pre-stained with DRAQ5 (Thermo Scientific cat. no. 62251). Fluorescence emission was then measured on the TTP Mirrorball plate reader in the FL2 (502 nm-537 nm) and FL5 (677-800 nm) channels following excitation at 488 nm and 640 nm. Data was gated on FL5 perimeter and peak intensity and the FL2 median mean fluorescence intensity of the gated data used for determination of VH binding. Monovalent CD137 specific Humabody® VH, bispecific and trispecific molecules with a CD137 binding arm bound to CHO CD137 expressing cells. Monovalent PSMA specific Humabody® VH, bispecific and trispecific molecules with a PSMA binding arm bound to PSMA expressing cells.

[3] = target: T4, CD137 on pre-stimulated human CD8+ T cells (human, UniProt Q07011 24-255); experiment: flow cytometry, PMA/ionomycin-stimulated human CD8+ T cells, mean of 2-3 donors
T4 construct: also called pre-stimulated CD8+ cells; primary T cells
T4 sequence (Q07011 24-255 limits assumed): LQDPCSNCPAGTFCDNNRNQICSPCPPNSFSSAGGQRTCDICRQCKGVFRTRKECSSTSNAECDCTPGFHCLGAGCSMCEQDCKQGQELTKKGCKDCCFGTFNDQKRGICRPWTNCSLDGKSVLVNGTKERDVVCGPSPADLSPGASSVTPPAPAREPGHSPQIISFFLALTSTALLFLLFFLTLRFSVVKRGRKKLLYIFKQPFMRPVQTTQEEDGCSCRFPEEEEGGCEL
Description: Binding to primary T cells was measured using flow cytometry. Peripheral blood mononuclear cells (PBMCs) were isolated from human blood by density gradient centrifugation then CD8+ T cells purified using a negative selection isolation kit according to the manufacturer's protocol (Miltenyi Biotech cat no 130-042-401). T-cells were stimulated PMA/Ionomycin for 48-72 hours in RPMI media supplemented with 10% FBS, 2 mM Glutamine, 1× Pen/Strep. Cells were transferred into 96 well plates, blocked for 10 mins with staining buffer (PBS/1% BSA/0.05% Sodium Azide) then incubated with serially diluted VH in staining buffer (PBS/1% BSA) for 30 mins-1 hour at 4° C. Cells were washed by centrifugation then VH binding detected using Anti His antibody (Millipore 05-949) and Goat Anti Mouse Alexa Fluor-488 (Jackson ImmunoResearch cat no. 115-545-071). A Live Dead near IR stain (Molecular Probes cat no. L10119) was used for discrimination of live cells. After further washing cells were fixed and fluorescence measured by flow cytometry.

[4] = target: T5, human CD137 expressed on the surface of CHO cells (human, UniProt Q07011 24-255); experiment: FMAT ligand inhibition, CD137 Ligand on CHO human CD137 cells
T5 construct: Also used for the Jurkat reporter cells that express human CD137 (functional rows); also called CHO human CD137 cells; CHO huCD137
T5 sequence (Q07011 24-255 limits assumed): as above
Description: In parallel to the binding assay, periplasmic extracts were tested for their ability to inhibit the interaction of human CD137 ligand protein with CHO human CD137 cells in an FMAT format. Total binding controls containing diluted periplasmic extract sample buffer and non-specific binding controls containing excess non-Fc tagged competitor were set up on each plate for data normalisation. Fluorescence signal was measured using the TTP Mirrorball and the FL2 median mean fluorescence intensity of gated used for the data normalisation. The data was expressed as a % of the total binding control (% control) after subtraction of the background signal determined from the non-specific binding control wells.
The ability of purified Humabody VH to inhibit the binding of CD137 Ligand to CHO human CD137 cells was measured in the FMAT ligand inhibition assay essentially as described in Example 6. VH inhibited the binding of human CD137 Ligand to human CD137.

[5] = target: T3, human PSMA expressed on cells; experiment: FMAT, DU145 PSMA cells
Description: as §2

[6] = target: T5, human CD137 expressed on the surface of …; experiment: FMAT, CHO human CD137 cells
Description: as §2

[7] = target: T3, human PSMA expressed on cells; experiment: dual binding cell ELISA: the titrated step is the binding of the bispecific to CHO human PSMA cells; readout is bound CD137huFc (fixed 1 nM) with anti human Fc-HRP, so the value reflects dual engagement
Description: Dual target engagement of CD137 and PSMA by the bispecific molecules was assessed using an ELISA format. CHO-PSMA cells (20000/well) were seeded into 96 well plates (Greiner cat no. 353872) in Hams F12 supplemented with L-Glutamine+Blasticidin+Tetracycline and incubated at 37° C. with 5% CO₂ overnight. All subsequent steps were performed at room temperature and included washes with PBS between each step. Plates were blocked with PBS/0.1% BSA for 1 hour then serially diluted Humabody® VH were added and allowed to bind for 1 hour. Following removal of unbound VH, 1 nM CD137huFc (Acro Biosystems cat no. 41B-H5258) was added to the wells and incubated for 1 hour. A 1:3000 dilution of Anti-huFc-HRP (Jackson ImmunoResearch cat no. 109-035-098) was subsequently added for 1 hour and plates developed by addition of TMB. The reaction was stopped by addition of 0.5M sulphuric acid and plates read on BMG PheraStar at Absorbance 450 nm.

[8] = target: T6, PSMA-his (R&D Systems cat no. 4234-ZN) (human, UniProt Q04609 44-750); experiment: BLI (Octet RED384), PSMA-his amine-coupled to AR2G sensors, 1:1 model
T6 construct: Bought protein; also called Human PSMA; not shown: His tag
T6 sequence (Q04609 44-750 limits assumed): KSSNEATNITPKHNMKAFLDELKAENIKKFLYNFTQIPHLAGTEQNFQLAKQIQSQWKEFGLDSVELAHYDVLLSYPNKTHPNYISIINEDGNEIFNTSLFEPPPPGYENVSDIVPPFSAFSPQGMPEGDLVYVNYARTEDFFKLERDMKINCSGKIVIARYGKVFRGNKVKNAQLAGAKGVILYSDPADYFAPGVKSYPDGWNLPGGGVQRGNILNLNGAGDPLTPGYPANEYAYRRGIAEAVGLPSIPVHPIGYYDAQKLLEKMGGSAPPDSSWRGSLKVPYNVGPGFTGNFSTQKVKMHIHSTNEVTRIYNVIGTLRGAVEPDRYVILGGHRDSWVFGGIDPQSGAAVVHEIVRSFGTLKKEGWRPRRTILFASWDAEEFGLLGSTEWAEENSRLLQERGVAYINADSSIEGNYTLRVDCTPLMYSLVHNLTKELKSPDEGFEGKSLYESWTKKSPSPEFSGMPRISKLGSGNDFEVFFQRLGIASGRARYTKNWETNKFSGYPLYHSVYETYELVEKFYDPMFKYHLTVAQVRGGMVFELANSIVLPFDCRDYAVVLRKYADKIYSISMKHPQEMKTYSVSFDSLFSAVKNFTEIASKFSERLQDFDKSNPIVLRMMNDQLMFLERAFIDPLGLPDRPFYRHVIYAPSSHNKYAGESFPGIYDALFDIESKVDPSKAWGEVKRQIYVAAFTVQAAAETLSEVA
Description: as §1

[9] = target: T1, rhesus CD137Fc recombinant protein …; experiment: SPR (Biacore T200), single cycle kinetics, rhesus CD137-Fc captured on Protein G chip, mean ± SD; rhesus CD137Fc
Description: (§3) The Biacore T200 instrument was used to study the interaction between VH with human and rhesus CD137-human IgG1 Fc tagged protein by surface plasmon resonance (SPR). Single cycle kinetics assays used to evaluate the kinetics and affinity of the interaction. Experiments were performed at 25° C. in HBS-EP+ assay buffer with a flow rate of 30 μl/minute. A Protein G chip was used to capture the Fc tagged recombinant CD137 diluted to 2 μg/ml to one of the flow cells over 7 seconds. A second flow cell without any captured CD137 was used as the reference cell. A five point, three-fold dilution series of VH was made with a top concentration of 60 nM. The binding kinetics were followed by flowing these over the chip surface. The contact time for each of the binding steps was 180 seconds and the dissociation step was 1800 and 3600 seconds for rhesus and human CD137 respectively. After each run, the sensors were regenerated with glycine pH 1.5 to remove the captured CD137. The data was fitted to a 1:1 binding model after double reference subtraction using the Biacore T200 Evaluation software.

[10] = target: T2, human CD137-human Fc chimeric protein …; experiment: SPR (Biacore T200), single cycle kinetics, CD137-Fc captured on Protein G chip, mean ± SD; human CD137Fc
Description: as §3

Kd [1] [nM]	koff [1] [s⁻¹]	kon [1] [M⁻¹ s⁻¹]	EC50 [2] [nM]	EC50 [3] [nM]	IC50 [4] [nM]	EC50 [5] [nM]	EC50 [6] [nM]	EC50 (read off the curve) [7] [pM]	Kd [8] [nM]	koff [8] [s⁻¹]	kon [8] [M⁻¹ s⁻¹]	Kd [9] [nM]	koff [9] [s⁻¹]	kon [9] [M⁻¹ s⁻¹]	Kd [10] [nM]	koff [10] [s⁻¹]	kon [10] [M⁻¹ s⁻¹]	Binder
0.73	0.00031	410000	0.19	0.73	2.5	0.21	0.43	~800	1.3	0.00054	430000	–	–	–	–	–	–	4.1(PSMA-binding VH)-6GS-1.1 (bispecific antibody, tandem VH, PSMA x CD137; also called 4.1-6GS-1.1; not shown: His tag) EVQLVESGGGVVQPGRSLRLSCAASGFSFSGYGMHWVRQAPGKGLEWVAYISYDGSNKYYADSVKGRFTISRDNSKNTLYLQMNSLRAEDTAVYYCAKDPAWGLRLGESSSYDFDIWGQGTMVTVSSGGGGSGGGGSGGGGSGGGGSGGGGSGGGGSEVQLVESGGGLVQPGGSLRLSCAASGFTFSSHWMTWFRQAPGKGLEWVAHIKEDGSEKYYEDSVEGRFTVSRDNAKNSVYLQMNSLRAEDTAVYYCARGGDGYSDSHFGVDVWGQGTTVTVSS
–	–	–	–	–	0.73	–	0.09	–	–	–	–	0.27	0.00028	1.1e+06	0.085	0.0003	3.6e+06	Humabody VH 1.113 (VHH, human single VH domain) VH: EVQLVESGGGLVQPGGSLRLSCAASGFTLSNYWMNWVRQAPGKGLEWVANINQDGSERYYVDSVKGRFTISRDNAKNSLYLQMNSLRAEDTAVYYCARGGEGYGVDHYGLDVSGQGTTVTVSSHHHHHH
4.8	0.0026	580000	0.28	3	13	0.39	0.97	~1000	0.66	0.00033	500000	–	–	–	–	–	–	4.1(PSMA-binding VH)-6GS-2.1 (bispecific antibody, tandem VH, PSMA x CD137; also called 4.1-6GS-2.1; not shown: His tag) EVQLVESGGGVVQPGRSLRLSCAASGFSFSGYGMHWVRQAPGKGLEWVAYISYDGSNKYYADSVKGRFTISRDNSKNTLYLQMNSLRAEDTAVYYCAKDPAWGLRLGESSSYDFDIWGQGTMVTVSSGGGGSGGGGSGGGGSGGGGSGGGGSGGGGSEVQLVESGGGLVKPGGSLRVSCAASGFTFSDYYMSWFRQAPGKGLEWVSYISGSGDIIDYADSVKGRFTISRDNAKNSLYLQMNNLRAEDTAVYHCAREDSRLTGTTDFDNWGQGTLVTVSS
